Laboratory results as given in patent US20200270586A1 (PROMEGA, published 2020).

Target: T1, LgTrip 3092 (SEQ ID NO: 19)
T1 construct: also called LgTrip 3092 His; ATG 3092
Experiment: tripartite luminescence complementation (with pep86 as third part)

B1: SmTrip9 pep245 (peptide)
peptide: GSMLFRVTINS
  binding result: binds
